# Measurements as given in patent publication US20030129189A1, “Tumor necrosis factor-gamma” (priority 1994, published 2003).
# Experiments:
# [1] = tested on: adult bovine aortic endothelial (ABAE) cells; test: In vitro angiogenesis assay (capillary-like tubes on collagen gels); assay type: cell-based; conditions: control
# TNF-gamma-beta [2] = target: T1, TNF-gamma-beta (Homo sapiens, UniProt O95150); test: Coimmunoprecipitation of TNF-gamma-beta by TNFR-Fc proteins; assay type: binding
# T1 construct: made in house; host or cells: 293T cells, transient transfection
# T1 sequence (O95150 72-251 limits assumed): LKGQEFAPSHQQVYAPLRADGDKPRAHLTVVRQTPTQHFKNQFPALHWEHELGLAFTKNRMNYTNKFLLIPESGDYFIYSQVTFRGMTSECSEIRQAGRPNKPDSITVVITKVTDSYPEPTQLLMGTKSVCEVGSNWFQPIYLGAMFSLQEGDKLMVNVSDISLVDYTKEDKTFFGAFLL
# Source text: The beads were then precipitated and washed extensively with PBST buffer (PBS, 0.5% Triton X-100) before boiled in SDS-sample buffer. Proteins were resolved on 4-20% Tris-Glycine gels (NOVEX), transferred to nitrocellulose membranes, and blotted with anti-Flag M2 monoclonal antibody (1 microgram/ml, Sigma) andhorseradish peroxidase (HRP)-conjugated goat anti-mouse IgG antibody (0.5 microgram/ml).
# TNF-gamma-beta [3] = target: T2, TNF-gamma-beta (Homo sapiens, UniProt O95150); test: Inhibition of TNF-gamma-beta activation of NF-κB in 293T cells; assay type: cell-based
# T2 construct: made in house; host or cells: E. coli (untagged) or 293T (FLAG-tagged)
# T2 sequence (O95150 72-251): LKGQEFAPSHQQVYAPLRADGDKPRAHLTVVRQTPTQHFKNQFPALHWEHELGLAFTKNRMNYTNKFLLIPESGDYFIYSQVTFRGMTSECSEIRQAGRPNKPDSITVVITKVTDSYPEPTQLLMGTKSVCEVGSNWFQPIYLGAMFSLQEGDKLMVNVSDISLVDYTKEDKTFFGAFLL
# Method: To avoid spontaneous apoptosis or NF-κB activation accompanied with DR3 overexpression, a limited amount of DR3-expression DNA that by itself minimally activated these pathways was used.
# 293T cells were transiently transfected using LipofectAMINE and PLUS reagents according to the manufacturer's instruction (Invitrogen). For reporter assays, 293T cells, at 5×10^5 cells/well, were seeded in 6-well plates and transfected with a total of 1 microgram of DNA. pC4 DNA was used as filler DNA. Conditioned supernatant was collected 24 hr post-transfection and assayed for secreted alkaline phosphatase (SEAP) activity using the Phospha-Light™ chemiluminescent reporter gene assay system (Tropix). pCMV-lacZ was used as internal control for transfection efficiency normalization.
# TNF-gamma-beta [4] = target: T1, TNF-gamma-beta; test: Neutralization of TNF-gamma-beta induced SEAP production in TF-1/SRE reporter cells; assay type: cell-based; conditions: TNF-gamma-beta at 200 ng/mL, TF1/SRE reporter cells
# Method: Briefly, a poly-D-lysine coated 96-well plate is seeded with TF-1/SRE-SEAP cells (in RPMI+0.2% Fetal bovine serum) at 75,000 cells per well. […] Again cells were incubated overnight. After overnight incubation, conditioned media were collected and SEAP activity was determined using the SEAP Reporter Gene Assay available from Roche Molecular Biochemicals (Indianapolis, Ind.) according to the manufacturer's directions. Briefly, Conditioned media were diluted 1:4 into dilution buffer. Samples were incubated at 65C for 30 minutes to eliminate contaminating AP activity usually present in culture medium. 25 microliters of the heat-inactivated samples were mixed with equal volume of inactivation buffer (containing a mixture of differential alkaline phosphatase inhibitors). Following a 5-minute incubation at room temperature, 50 uL of alkaline phosphatase substrate (CSPD) was added to each well. Chemiluminescence signal was read 10-15 minutes later using a luminometer.
# These solutions were then incubated for 1 hour at room temperature. […] After the overnight incubation, the SEAP assay was performed as described above.
# The premyeloid cell line TF-1 was stably transfected with SRE/SEAP (Signal Response Element/Secreted Alkaline Phosphatase) reporter plasmid that responds to the SRE signal transduction pathway.
# TNF-gamma-beta [5] = target: T2, TNF-gamma-beta; test: Inhibition of TNF-gamma-beta-mediated IFNγ secretion from T cells; assay type: cell-based; conditions: costimulated T cells
# Method: The extent of the increase in IL-2 receptor expression is consistent with the moderate increase in IL-2 responsiveness compared with IL-2 itself.
# 1×10^5 cells/ml of purified T cells were seeded in a 24-well tissue culture plate that had been coated with anti-CD3 (0.3 microgram/ml) and anti-CD28 (5.0 microgram/ml) overnight at 4° C. […] ELISA assay for IFNγ, GM-CSF, IL-2 IL-4, IL-10 and TNFα were performed using kits purchased from R & D Systems. Recombinant human IL-2 (5 ng/ml) was used as a positive control. All samples were tested in duplicate and results were expressed as an average of duplicate samples plus or minus error.
# [6] = tested on: TNF-gamma on the cell surface; test: FACS analysis of receptor-ligand binding on cells
# Method: Consistent with the Northern blot analysis, peripheral blood mononuclear cells (PBMC) and human umbilical vein endothelial cells (HUVEC) express TNF-gamma on the cell surface by immunostaining with antibody to TNF-gamma. [Cells were collected by trypsinization or aspiration, and centrifuged at 1500-2000 rpm for 5 min. The cell pellets were resuspended and washed in 5 ml ice-cold PBS twice. The cells were incubated for 30 min at […] with antibody (10 mg/ml ) to TNF-gamma to detected expression of TNF-gamma on cell surface, with DR3-Fc or LTbR-Fc (10 mg/ml) for receptor and ligand binding in the binding buffer (HBSS containing 10% BSA, 20 mM HEPES, pH 7.2, 0.02% NaN3). […] Fluorescence was analyzed by a FACscan flow cytometer (Becton Dickinson, Mountain View, Calif.).] […] After incubation at 37° C. for 72 hr, the NF-kB activity was measured with luminometer at absorbance of 450 nm.]
# Cells were collected by trypsinization or aspiration, and centrifuged at 1500-2000 rpm for 5 min. […] The cells were incubated for 30 min at 40° C. with antibody (10 mg/ml ) to TNF-gamma to detected expression of TNF-gamma on cell surface, with DR3-Fc or LTbR-Fc (10 mg/ml) for receptor and ligand binding in the binding buffer (HBSS containing 10% BSA, 20 mM HEPES, pH 7.2, 0.02% NaN3). […] Fluorescence was analyzed by a FACscan flow cytometer (Becton Dickinson, Mountain View, Calif.).
# TNF-gamma-beta [7] = target: T3, TNF-gamma-beta (Homo sapiens, UniProt O95150); test: FACS binding of receptor-Fc proteins to cells expressing full length TNF-gamma-beta
# T3 construct: expressed in transfected cells
# T3 sequence (O95150 1-251): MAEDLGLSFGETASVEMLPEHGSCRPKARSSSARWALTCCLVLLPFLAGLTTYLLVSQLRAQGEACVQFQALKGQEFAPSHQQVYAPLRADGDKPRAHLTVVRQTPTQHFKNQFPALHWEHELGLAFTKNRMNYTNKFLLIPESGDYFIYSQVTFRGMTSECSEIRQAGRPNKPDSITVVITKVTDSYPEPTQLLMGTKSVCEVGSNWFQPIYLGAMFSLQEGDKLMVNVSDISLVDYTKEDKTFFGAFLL
# Method: These cells were used to screen the Fc-fusion form of the extracellular domain of TNFR family members, including TNFR1, Fas, HveA, DR3, DR4, DR5, DR6, DcR1, DcR2, TR6, OPG, RANK, AITR, TAC1, CD40, and OX40. […] TR6 has been previously described as a decoy receptor (Pitti et al., Nature 396:699-703 (1998); Yu et al., J. Biol. Chem. 274:13733-6 (1999)) capable of competing with Fas and HveA for binding of FasL and LIGHT, respectively.
# Cells resistant to 0.5 mg/ml Genticin (Invitrogen) were selected and expanded. Expression of TNF-gamma-beta mRNA was confirmed by quantitative RT-PCR analysis and surface expression of TNF-gamma-beta protein confirmed by FACS analyses using TNF-gamma-beta monoclonal antibodies.
# One million cells, in 0.1 ml of FACS buffer (PBS, 0.1% BSA, 0.1% NaN3), were incubated with 0.1-1 microgram of protein or antibody at RT for 15 min. The cells were washed with 3 ml of FACS buffer, reacted with biotinylated primary antibody, and stained with PE-conjugated secondary antibody at RT for 15 min. Cells were then washed again, resuspended in 0.5 microgram/ml of propidium iodide, and live cells were gated and analyzed on a FACScan using the CellQuest software (BD Biosciences).
# TNF-gamma-beta [8] = target: T2, TNF-gamma-beta; test: Inhibition of TNF-gamma-beta induced caspase activation in TF-1 cells; assay type: cell-based; conditions: presence of cycloheximide
# Method: Briefly, cells growing in microtiter plates are induced to undergo apoptosis, causing an activation of caspase activities. Equal volume of a caspase substrate (Asp-Glu-Val-Asp-Rhodamine 110, or DEVD-R110) solution is then added and incubated for at least 1 hour. During this incubation, cells are being lysed and free R110 is released from the substrate. The level of free R110 is determined fluorimetrically, using a fluorescence reader with excitation filter 470-500 nm and emission filter 500-560 nm.
# A black 96-well plate with a clear bottom is seeded with 75,000 TF-1 cells in RPMI containing 1% fetal bovine serum and micrograms/milliliter cyclohexamide. […] Following the manufacturer's directions, an equal volume of 1×substrate solution containing 50 micromolar DEVD-R110 diluted in incubation buffer is added to each well. The 96-well plates are then incubated for 2 hours after which the plate is read in a fluorescence reader with an excitation filter at 485 nm and an emission filter at 535 nm.
# These solutions were then incubated for 1 hour at room temperature.
# The reagents were incubated for 1 hour at RT to allow the formation of protein-TNF-gamma-beta complexes and then added to the cells. Caspase activity was measured as described above.
# WEHI 164 cells = test: Measurement of apoptosis (nucleosome ELISA); assay type: cell-based, mouse; conditions: increasing amounts (FIG. 12)
# Method: In a first incubation step, anti-histone antibody was fixed adsorptively on the wall of a microtiter plate module. Subsequently, non-specific binding sites on the wall were saturated by treatment with incubation buffer (e.g., blocking solution). During the second incubation step, the nucleosomes contained in the WEHI 164 cell sample treated with the TNF-alpha, TNF-beta or bacterially-produced TNF-gamma were bound via their histone components to the immobilized anti-histone antibody. In the third incubation step, anti-DNA-peroxidase (POD) reacted with the DNA component of the nucleosomes. After removal of all unbound peroxidase conjugate by a washing step, the amount of peroxidase retained in the immunocomplex was determined spectrophotometrically using the substrate ABTS (2,2′-azino-di-[3-ethylbenzthiazoline sulfonate]). Anti-histone antibody reacted with the histones H1, H2A, H2B, H3, and H4 from the sample. Anti-DNA POD antibody bound to single- and double-stranded DNA. Therefore, the ELISA allowed the detection of mono- and oligonucleosomes and may be applied to measure apoptotic cell death. The level of cell death was measured by the amount of cytoplasmic histone-associated DNA fragments which was indicated by the ratio of the absorbances observed at 405 and 490 nm (A405/A490). […]
molecule,measurement,setting,value
FGF-2: angiogenic factor FGF-2,EC50 value to stimulate in vitro angiogenesis,[1],about 5 ng/ml
same,concentration of maximum stimulatory effect on in vitro angiogenesis,[1],10 ng/mL
DR3.Fc: extracellular domain of human DR3 (aa 1-199) fused to the Fc domain of human IgG1,immunoprecipitation of TNF-gamma-beta,TNF-gamma-beta [2],can be used to immunoprecipitate TNF-gamma-beta
same,inhibition of TNF-gamma-beta activation of NF-κB,TNF-gamma-beta [3],able to inhibit
same,neutralization of TNF-gamma-beta SEAP activity by receptor-Fc,TNF-gamma-beta [4],interacts with TNF-gamma-beta
DR3-Fc: recombinant receptor DR3-Fc fusion protein (Fc-extracellular domain of DR3) [reference compound],immunoprecipitation of TNF-gamma-beta,TNF-gamma-beta [2],specifically interacted with FLAG-TNF-gamma-beta
same,inhibition of TNF-gamma-beta activation of NF-κB,TNF-gamma-beta [3],specifically inhibited
same,inhibition of TNF-gamma-beta-mediated IFNγ secretion,TNF-gamma-beta [5],able to inhibit
same,binding to HUVEC cells and PBMC,[6]; FACS,also binds to HUVEC cells and PBMC
same,binding to TNF-gamma-transfected tumor cells (FACS shift),[6]; MC-38/TNF-gamma cells,indicating cell-surface binding between TNF-gamma and DR3
same,binding to cells expressing TNF-gamma-beta (FACS),TNF-gamma-beta [7],bound efficiently
same,inhibition of TNF-gamma-beta induced caspase activation,TNF-gamma-beta [8],inhibited by either DR3-Fc or TR6-Fc protein
"TNF-beta: tumor necrosis factor beta (lymphotoxin), control cytokine (protein, UniProt P01374 35-205, looked up) Lymphotoxin-alpha: LPGVGLTPSAAQTARQHPKMHLAHSTLKPAAHLIGDPSKQNSLLWRANTDRAFLQDGFSLSNNSLLVPTSGIYFVYSQVVFSGKAYSPKATSSPLYLAHEVQLFSSQYPFHVPLLSSQKMVYPGLQEPWLHSMYHGAAFQLTQGDQLSTHTDGIPHLVLSPSTVFFGAFAL","apoptosis (cytoplasmic histone-associated DNA fragments, A405/A490)",WEHI 164 cells,also observed in the presence of increasing amounts
